Results published in patent publication US20090252683A1 (Amgen, published 2009).

B1: EGFR HL × SEQ ID NO. 170 (bispecific antibody)
chain: QVQLQQSGPDLVKPGASVKMSCKASGHTFTDCVIIWVKQRAGQGLEWIGQIYPGTGRSYYNEIFKGKATLTADKSSNTVHIQLSSLTSEDSAVYFCALSTLIHGTWFSYWGQGTLVTVSSGGGGSGGGGSGGGGSDIVLTQSPASLPVSLGQRATISCRASQSVSSSTYSYIHWYQQKPGQPPKLLITYASNLESGVPARFSGSGSGTDFTLDIHPVEEDDSSTYYCQHSWEIPFTFGSGTKLEIKSGGGGSEVQLVESGGGLVQPGGSLKLSCAASGFTFNTYAMNWVRQAPGKGLEWVARIRSKYNNYATYYADSVKDRFTISRDDSKNTAYLQMNNLKTEDTAVYYCVRHGNFGNSYVSWFAYWGQGTLVTVSSGGGGSGGGGSGGGGSQTVVTQEPSLTVSPGGTVTLTCRSSTGAVTTSNYANWVQQKPGQAPRGLIGGTNKRAPGTPARFSGSLLGGKAALTLSGVQPEDEAEYYCALWYSNLWVFGGGTKLTVLHHHHHH
notes: the appendix prints the entry with HHHHHH and then *VD (stop and vector residues) at its end
B2: EGFR LH × SEQ ID NO. 194 (bispecific antibody)
chain: DIVLTQSPASLPVSLGQRATISCRASQSVSSSTYSYIHWYQQKPGQPPKLLITYASNLESGVPARFSGSGSGTDFTLDIHPVEEDDSSTYYCQHSWEIPFTFGSGTKLEIKGGGGSGGGGSGGGGSQVQLQQSGPDLVKPGASVKMSCKASGHTFTDCVIIWVKQRAGQGLEWIGQIYPGTGRSYYNEIFKGKATLTADKSSNTVHIQLSSLTSEDSAVYFCALSTLIHGTWFSYWGQGTLVTVSSSGGGGSQTVVTQEPSLTVSPGGTVTLTCRSSTGAVTTSNYANWVQQKPGQAPRGLIGGTNKRAPGTPARFSGSLLGGKAALTLSGVQPEDEAEYYCALWYSNLWVFGGGTKLTVLGGGGSGGGGSGGGGSEVQLVESGGGLVQPGGSLKLSCAASGFTFNTYAMNWVRQAPGKGLEWVARIRSKYNNYATYYADSVKDRFTISRDDSKNTAYLQMNNLKTEDTAVYYCVRHGNFGNSYVSWFAYWGQGTLVTVSSHHHHHH
notes: the appendix prints the entry with HHHHHH and then *VD at its end
B3: SEQ ID NO. 170 × EGFR LH (bispecific antibody)
chain: EVQLVESGGGLVQPGGSLKLSCAASGFTFNTYAMNWVRQAPGKGLEWVARIRSKYNNYATYYADSVKDRFTISRDDSKNTAYLQMNNLKTEDTAVYYCVRHGNFGNSYVSWFAYWGQGTLVTVSSGGGGSGGGGSGGGGSQTVVTQEPSLTVSPGGTVTLTCRSSTGAVTTSNYANWVQQKPGQAPRGLIGGTNKRAPGTPARFSGSLLGGKAALTLSGVQPEDEAEYYCALWYSNLWVFGGGTKLTVLSGGGGSDIVLTQSPASLPVSLGQRATISCRASQSVSSSTYSYIHWYQQKPGQPPKLLITYASNLESGVPARFSGSGSGTDFTLDIHPVEEDDSSTYYCQHSWEIPFTFGSGTKLEIKGGGGSGGGGSGGGGSQVQLQQSGPDLVKPGASVKMSCKASGHTFTDCVIIWVKQRAGQGLEWIGQIYPGTGRSYYNEIFKGKATLTADKSSNTVHIQLSSLTSEDSAVYFCALSTLIHGTWFSYWGQGTLVTVSSHHHHHH
notes: 184 as EGFR LH; the appendix heads it EGFR HL; ends with HHHHHH and *VD in the appendix
B4: SEQ ID NO. 194 × EGFR LH (bispecific antibody)
chain: QTVVTQEPSLTVSPGGTVTLTCRSSTGAVTTSNYANWVQQKPGQAPRGLIGGTNKRAPGTPARFSGSLLGGKAALTLSGVQPEDEAEYYCALWYSNLWVFGGGTKLTVLGGGGSGGGGSGGGGSEVQLVESGGGLVQPGGSLKLSCAASGFTFNTYAMNWVRQAPGKGLEWVARIRSKYNNYATYYADSVKDRFTISRDDSKNTAYLQMNNLKTEDTAVYYCVRHGNFGNSYVSWFAYWGQGTLVTVSSSGGGGSDIVLTQSPASLPVSLGQRATISCRASQSVSSSTYSYIHWYQQKPGQPPKLLITYASNLESGVPARFSGSGSGTDFTLDIHPVEEDDSSTYYCQHSWEIPFTFGSGTKLEIKGGGGSGGGGSGGGGSQVQLQQSGPDLVKPGASVKMSCKASGHTFTDCVIIWVKQRAGQGLEWIGQIYPGTGRSYYNEIFKGKATLTADKSSNTVHIQLSSLTSEDSAVYFCALSTLIHGTWFSYWGQGTLVTVSSHHHHHH
notes: 186 as EGFR LH; the appendix heads it EGFR HL; ends with HHHHHH and *VD in the appendix
B5: SEQ ID NO. 194 × EGFR HL (bispecific antibody)
chain: QTVVTQEPSLTVSPGGTVTLTCRSSTGAVTTSNYANWVQQKPGQAPRGLIGGTNKRAPGTPARFSGSLLGGKAALTLSGVQPEDEAEYYCALWYSNLWVFGGGTKLTVLGGGGSGGGGSGGGGSEVQLVESGGGLVQPGGSLKLSCAASGFTFNTYAMNWVRQAPGKGLEWVARIRSKYNNYATYYADSVKDRFTISRDDSKNTAYLQMNNLKTEDTAVYYCVRHGNFGNSYVSWFAYWGQGTLVTVSSSGGGGSQVQLQQSGPDLVKPGASVKMSCKASGHTFTDCVIIWVKQRAGQGLEWIGQIYPGTGRSYYNEIFKGKATLTADKSSNTVHIQLSSLTSEDSAVYFCALSTLIHGTWFSYWGQGTLVTVSSGGGGSGGGGSGGGGSDIVLTQSPASLPVSLGQRATISCRASQSVSSSTYSYIHWYQQKPGQPPKLLITYASNLESGVPARFSGSGSGTDFTLDIHPVEEDDSSTYYCQHSWEIPFTFGSGTKLEIKHHHHHH
notes: as for B2
B6: EGFR LH × SEQ ID NO. 170 (bispecific antibody)
chain: DIVLTQSPASLPVSLGQRATISCRASQSVSSSTYSYIHWYQQKPGQPPKLLITYASNLESGVPARFSGSGSGTDFTLDIHPVEEDDSSTYYCQHSWEIPFTFGSGTKLEIKGGGGSGGGGSGGGGSQVQLQQSGPDLVKPGASVKMSCKASGHTFTDCVIIWVKQRAGQGLEWIGQIYPGTGRSYYNEIFKGKATLTADKSSNTVHIQLSSLTSEDSAVYFCALSTLIHGTWFSYWGQGTLVTVSSGGGGSEVQLVESGGGLVQPGGSLKLSCAASGFTFNTYAMNWVRQAPGKGLEWVARIRSKYNNYATYYADSVKDRFTISRDDSKNTAYLQMNNLKTEDTAVYYCVRHGNFGNSYVSWFAYWGQGTLVTVSSGGGGSGGGGSGGGGSQTVVTQEPSLTVSPGGTVTLTCRSSTGAVTTSNYANWVQQKPGQAPRGLIGGTNKRAPGTPARFSGSLLGGKAALTLSGVQPEDEAEYYCALWYSNLWVFGGGTKLTVLHHHHHH
notes: as for B2
B7: EGFR HL × SEQ ID NO. 194 (bispecific antibody)
chain: QVQLQQSGPDLVKPGASVKMSCKASGHTFTDCVIIWVKQRAGQGLEWIGQIYPGTGRSYYNEIFKGKATLTADKSSNTVHIQLSSLTSEDSAVYFCALSTLIHGTWFSYWGQGTLVTVSSGGGGSGGGGSGGGGSDIVLTQSPASLPVSLGQRATISCRASQSVSSSTYSYIHWYQQKPGQPPKLLITYASNLESGVPARFSGSGSGTDFTLDIHPVEEDDSSTYYCQHSWEIPFTFGSGTKLEIKSGGGGSQTVVTQEPSLTVSPGGTVTLTCRSSTGAVTTSNYANWVQQKPGQAPRGLIGGTNKRAPGTPARFSGSLLGGKAALTLSGVQPEDEAEYYCALWYSNLWVFGGGTKLTVLGGGGSGGGGSGGGGSEVQLVESGGGLVQPGGSLKLSCAASGFTFNTYAMNWVRQAPGKGLEWVARIRSKYNNYATYYADSVKDRFTISRDDSKNTAYLQMNNLKTEDTAVYYCVRHGNFGNSYVSWFAYWGQGTLVTVSSHHHHHH
notes: as for B2
B8: SEQ ID NO. 170 × EGFR HL (bispecific antibody)
chain: EVQLVESGGGLVQPGGSLKLSCAASGFTFNTYAMNWVRQAPGKGLEWVARIRSKYNNYATYYADSVKDRFTISRDDSKNTAYLQMNNLKTEDTAVYYCVRHGNFGNSYVSWFAYWGQGTLVTVSSGGGGSGGGGSGGGGSQTVVTQEPSLTVSPGGTVTLTCRSSTGAVTTSNYANWVQQKPGQAPRGLIGGTNKRAPGTPARFSGSLLGGKAALTLSGVQPEDEAEYYCALWYSNLWVFGGGTKLTVLSGGGGSQVQLQQSGPDLVKPGASVKMSCKASGHTFTDCVIIWVKQRAGQGLEWIGQIYPGTGRSYYNEIFKGKATLTADKSSNTVHIQLSSLTSEDSAVYFCALSTLIHGTWFSYWGQGTLVTVSSGGGGSGGGGSGGGGSDIVLTQSPASLPVSLGQRATISCRASQSVSSSTYSYIHWYQQKPGQPPKLLITYASNLESGVPARFSGSGSGTDFTLDIHPVEEDDSSTYYCQHSWEIPFTFGSGTKLEIKHHHHHH
notes: as for B2

The binders below were run against T1, human EGFR on A431 cells (human, UniProt P00533 25-1210) (assay: FACS, A431 cells, 1 µg/ml purified protein, anti-His detection).
T1 construct: whole, on cells
Procedure: In order to test the functionality of the cross-species specific bispecific antibody constructs with regard to binding capability to human and cynomolgus EGFR and CD3, respectively, a FACS analysis was performed. For this purpose the EGFR positive epidermoid carcinoma A431 cells (ATCC, CRL-1555) and CD3 positive human T cell leukemia cell line HPB-ALL (DSMZ, Braunschweig, ACC483) were used to check the binding to human antigens. The binding reactivity to cynomolgus antigens was tested by using the generated cynomolgus EGFR transfectants described in Example 20 and cynomolgus PBMCs which were obtained by Ficoll density gradient centrifugation. 200,000 cells of the respective cell population were incubated for 30 min on ice with 50 μl of the purified protein of the cross-species specific bispecific antibody constructs (1 μg/ml). The cells were washed twice in PBS and binding of the construct was detected with an unlabeled murine Penta His antibody (diluted 1:20 in 50 μl PBS with 2% FCS; Qiagen; Order No. 34660). After washing, bound anti His antibodies were detected with an Fc gamma-specific antibody (Dianova) conjugated to phycoerythrin, diluted 1:100 in 50 μl PBS with 2% FCS. Fresh culture medium was used as a negative control.
Cells were analyzed by flow cytometry on a FACS-Calibur apparatus (Becton Dickinson, Heidelberg). FACS staining and measuring of the fluorescence intensity were performed as described in Current Protocols in Immunology (Coligan, Kruisbeek, Margulies, Shevach and Strober, Wiley-Interscience, 2002).

| Binder | binding result |
| --- | --- |
| B1 | binds |
| B2 | binds |
| B3 | binds |
| B4 | binds |
| B5 | binds |
| B6 | binds |
| B7 | binds |
| B8 | binds |
